Source: patent US20240336682A1 (SHENGHE CHINA BIOPHARMACEUTICAL, published 2024)
Like-named read-outs stand apart in the source and are kept apart here.

Tests used:
Human-CD24-His [1] = target: T1, Human-CD24-His (human, UniProt P25063 27-59); assay: ELISA, Human-CD24-His coated at 1 ug/mL, HRP goat anti-human IgG-Fc
T1 construct: also called CD24 protein; not shown: His tag
T1 chain (looked up): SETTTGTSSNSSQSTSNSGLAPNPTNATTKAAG
Procedure: (§1) Human-CD24-His was diluted to 1 μg/mL with PBS buffer at pH 7.4, added into the 96-well ELISA plate at 100 μL per well, coated overnight at 4° C., and blocked with 1% BSA blocking solution for 1 hour. The plate was washed 3 times with PBST, and the constructed antibodies were diluted to 20 μg/mL with 0.5% BSA sample diluent as the starting concentration, and then diluted by 3-fold gradient (11 gradients in total) and incubated at 37° C. for 1 h at 100 μL per well. The plate was washed 3 times with PBST, and then HRP-labelled goat anti-human IgG-Fc (jackson Cat: 109-035-098) was diluted with the sample diluent at 1:10000. 100 μL was added into each well, and incubated at room temperature for 1 hour. […] The absorbance value of each well in the 96-well plate was determined by selecting the wavelength of 450 nm and the reference wavelength of 570 nm on a multifunctional enzyme marker, and the absorbance value (OD)=OD₄₅₀ₙₘ−OD₅₇₀ₙₘ. The logarithm of the concentration of the constructed antibodies were taken as the abscissa, and the measured absorbance value of each well was taken as the ordinate, and the Sigmoidaldose-response (Variable Slope) method (GraphPad Prism software, GraphPad Software, San Diego, California) was selected for nonlinear regression to obtain the binding curve of the target antibodies to the CD24 protein.

Human-CD24-His [2] = target: T1, Human-CD24-His; assay: as above
Procedure: as §1

TGFβ1 [3] = target: T2, TGFβ1 (UniProt P01137 279-390, limits assumed); assay: ELISA, TGFb1 coated at 1 ug/mL, HRP goat anti-human IgG-Fc
T2 construct: also called TGFβ1 protein
T2 sequence (P01137 279-390 limits assumed): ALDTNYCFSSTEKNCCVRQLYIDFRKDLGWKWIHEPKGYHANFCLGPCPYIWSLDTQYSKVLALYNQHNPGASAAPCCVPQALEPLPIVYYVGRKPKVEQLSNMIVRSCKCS
Procedure: (§2) TGFβ1 was diluted to 1 μg/mL with PBS buffer at pH 7.4, added into the 96-well ELISA plate at 100 μL per well, coated overnight at 4° C., and blocked with 1% BSA blocking solution for 1 hour. The plate was washed 3 times with PBST, and the constructed expressing antibodies were diluted to 20 µg/mL with 0.5% BSA sample diluent as the starting concentration, and then diluted by 3-fold gradient (11 gradients in total). A negative control (blank well and IgG1 isotype control) and a positive control were set, and the positive control was TGF-βR2 (Acro, Cat: TG2-H5252), and incubated at 37° C. for 1 h at 100 μL per well. The plate was washed 3 times with PBST, and then HRP-labelled goat anti-human IgG-Fc was diluted with the sample diluent at 1:10000. […] The absorbance value of each well in the 96-well plate was determined by selecting the wavelength of 450 nm and the reference wavelength of 570 nm on a multifunctional enzyme marker, and the absorbance value (OD)=OD₄₅₀ₙₘ−OD₅₇₀ₙₘ. The logarithm of the concentration of the constructed antibodies were taken as the abscissa, and the measured absorbance value of each well was taken as the ordinate, and the Sigmoidaldose-response (Variable Slope) method (GraphPad Prism software, GraphPad Software, San Diego, California) was selected for nonlinear regression to obtain the binding curve of the target antibodies to the TGFβ1 protein.

TGFβ1 [4] = target: T2, TGFβ1; assay: as above; remark: listed apart in the source
Procedure: as §2

TGFβ1 [5] = target: T2, TGFβ1; assay: as above; remark: listed apart in the source
Procedure: as §2

Human-NKP30-His [6] = target: T3, Human-NKP30-His (human, UniProt O14931 19-135); assay: ELISA, Human-NKP30-His coated at 0.5 ug/mL, HRP goat anti-human IgG-Fc
T3 construct: also called NKP30 protein; not shown: His tag
T3 sequence (looked up): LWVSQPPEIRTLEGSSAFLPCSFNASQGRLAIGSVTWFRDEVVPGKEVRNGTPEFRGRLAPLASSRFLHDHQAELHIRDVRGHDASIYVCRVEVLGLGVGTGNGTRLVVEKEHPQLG
Procedure: (§3) Human-NKP30-His was diluted to 0.5 μg/mL with PBS buffer at pH 7.4, added into the 96-well ELISA plate at 100 μL per well, coated overnight at 4° C., and blocked with 1% BSA blocking solution for 1 hour. The plate was washed 3 times with PBST, and the constructed antibodies were diluted to 10 μg/mL with 0.5% BSA sample diluent as the starting concentration, and then diluted by 3-fold gradient (11 gradients in total). A negative control (blank well and IgG1 isotype control) and a positive control were set, and the positive control was a NKP30 humanized antibody (sequence shown in SEQ ID No.32), and incubated at 37° C. for 1 h at 100 μL per well. […] The absorbance value of each well in the 96-well plate was determined by selecting the wavelength of 450 nm and the reference wavelength of 570 nm on a multifunctional enzyme marker, and the absorbance value (OD)=OD₄₅₀ₙₘ−OD₅₇₀ₙₘ. The logarithm of the concentration of the constructed antibodies were taken as the abscissa, and the measured absorbance value of each well was taken as the ordinate, and the Sigmoidaldose-response (Variable Slope) method (GraphPad Prism software, GraphPad Software, San Diego, California) was selected for nonlinear regression to obtain the binding curve of the target antibody to NKP30 protein.

Human-NKP30-His [7] = target: T3, Human-NKP30-His; assay: as above; remark: listed apart in the source
Procedure: as §3

Human-NKP30-His [8] = target: T3, Human-NKP30-His; assay: as above; remark: listed apart in the source
Procedure: as §3

Human-NKP30-His [9] = target: T3, Human-NKP30-His; assay: as above; remark: listed apart in the source
Procedure: as §3

B1: Positive control (antibody, human IgG1, kappa, V domains shown)
VH: QVQLVQSGSELKKPGASVKVSCKASGYIFTDYAIHWVRQAPGQGLEWMGFINTATGEPTYADDFKGRFVFSLDTSVSTAYLQISSLKAEDTAVYFCTSGVHWGQGTLVTVSS
VL: DIQMTQSPSTLSASVGDRVTITCSASSSVSSMHWYQQKPGKAPKLLIYSTSNLASGVPSRFSGSGSGTEYTLTISSLQPDDFATYYCHHWTSYMYTFGGGTKVEIKR
notes: The sheet only prints 'Positive control'; also called CD24 monoclonal antibody
Human-CD24-His [1]
  EC50 (read off the curve): ~0.006 mg/L
Human-CD24-His [2]
  EC50 (read off the curve): ~0.01 mg/L

B2: TGF-βR2 (Acro, Cat: TG2-H5252) (receptor, UniProt P37173 23-159, looked up)
chain: TIPPHVQKSVNNDMIVTDNNGAVKFPQLCKFCDVRFSTCDNQKSCMSNCSITSICEKPQEVCVAVWRKNDENITLETVCHDPKLPYHDFILEDAASPKCIMKEKKKPGETFFMCSCSSDECNDNIIFSEEYNTSNPD
notes: Bought reagent
TGFβ1 [3]
  EC50 (read off the curve): ~0.04 mg/L
TGFβ1 [4]
  EC50 (read off the curve): ~0.03 mg/L
TGFβ1 [5]
  EC50 (read off the curve): ~0.03 mg/L

B3: NKP30 humanized antibody (antibody, V domains shown)
VH: EVQLVESGGGLVQPGGSLRLSCAASGITFSRSVMGWFRQAPGKLRELVAGITSDDNTDYADSVKGRFTISRDNSKNTLYLQMNSLRAEDTAVYYCNILPDSRLGWGQGTLVTVSS
notes: It was detected with anti-human IgG-Fc
Human-NKP30-His [6]
  EC50 (read off the curve): ~0.03 mg/L
Human-NKP30-His [7]
  EC50 (read off the curve): ~0.03 mg/L
Human-NKP30-His [8]
  EC50 (read off the curve): ~0.02 mg/L
Human-NKP30-His [9]
  EC50 (read off the curve): ~0.03 mg/L
